The record followed here is patent US20210388110A1 (published 2021).

Positions count from the first letter of the chain named.

The target of the assay is T1, soluble human GPC3 (human, UniProt P51654 25-563, limits assumed).
T1 construct: soluble human GPC3 as analyte; also called glypican 3
Description: SPR (Biacore), soluble human GPC3. Background: In SPR one partner is held on a chip, and binding of the other changes the refractive index at the surface.

T1 sequence (P51654 other isoform, or with tags, fused parts or gaps limits assumed, form in doubt): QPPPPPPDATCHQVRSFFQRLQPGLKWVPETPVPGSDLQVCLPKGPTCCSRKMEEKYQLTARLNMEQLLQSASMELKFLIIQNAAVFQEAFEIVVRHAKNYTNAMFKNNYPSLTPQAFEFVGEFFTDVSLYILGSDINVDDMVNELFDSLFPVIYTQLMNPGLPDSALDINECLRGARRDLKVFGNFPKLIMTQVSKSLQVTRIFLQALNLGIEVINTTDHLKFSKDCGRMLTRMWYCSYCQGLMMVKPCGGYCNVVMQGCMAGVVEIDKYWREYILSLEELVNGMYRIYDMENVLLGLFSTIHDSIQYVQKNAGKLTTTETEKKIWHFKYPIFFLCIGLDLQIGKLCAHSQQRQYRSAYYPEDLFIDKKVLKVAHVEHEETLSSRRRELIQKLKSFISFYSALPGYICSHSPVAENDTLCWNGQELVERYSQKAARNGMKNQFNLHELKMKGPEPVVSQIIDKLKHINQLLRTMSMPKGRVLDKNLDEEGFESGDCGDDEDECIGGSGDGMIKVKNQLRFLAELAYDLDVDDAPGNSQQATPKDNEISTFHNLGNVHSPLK

B1: GCH056-G1dh/none-Hi-Kn010G3/L0201-k0 (antibody, human IgG1, kappa)
heavy: not shown
chain: EPKSSDKTHTCPPCPAPELLGGPSVFLFPPKPKDTLMISRTPEVTCVVVDVSHEDPEVKFNWYVDGVEVHNAKTKPREEQYNSTYRVVSVLTVLHQDWLNGKEYKCKVSNKALPAPIEKTISKAKGQPREPQVCTLPPSRDELTKNQVSLWCLVKGFYPSDIAVEWESNGQPENNYKTTPPVLDSDGSFFLYSKLTVDKSRWQQGNVFSCSVMHEALHNRYTQKSLSLSP
light: DIVMTQSPLSLPVTPGEPASISCRSSQPPVHSNRNTYLHWYQQKPGQAPRLLIYKVSNRFSGVPDRFSGSGSGTDFTLKISRVEAEDVGVYYCGQGTQVPYTFGQGTKLEIKRTVAAPSVFIFPPSDEQLKSGTASVVCLLNNFYPREAKVQWKVDNALQSGNSQESVTEQDSKDSTYSLSSTLTLSKADYEKHKVYACEVTHQGLSSPVTKSFNRGEC
notes: single-arm (one Fab)
Molecule B1 showed a dissociation constant Kd of 1.16 nM.

B2: H0610-G1dh/none-Hi-Kn010G3/L0008-k0 (antibody, human IgG1, kappa)
heavy: not shown
chain: B1 chain
light: B1 light with S25V, P28S, P29L
notes: single-arm (one Fab)
Molecule B2 showed a Kd of 3.3 nM.

B3: H0610-G1dh/none-Hi-Kn010G3/L0002-k0 (antibody, human IgG1, kappa)
heavy: not shown
chain: B1 chain
light: B1 light with S25A, P28S, P29L
notes: single-arm (one Fab)
As for B3, the Kd was 4.43 nM.

B4: GCH065-G1dh/none-Hi-Kn010G3/L0000-k0 (antibody, human IgG1, kappa)
heavy: not shown
chain: B1 chain
light: B1 light with P28S, P29L
notes: single-arm (one Fab)
In the case of B4, the Kd came to 1.41 nM.

B5: H0610-G1dh/none-Hi-Kn010G3/L0009-k0 (antibody, human IgG1, kappa)
heavy: not shown
chain: B1 chain
light: B1 light with S26P, P28S, P29L
notes: single-arm (one Fab)
In the case of B5, the Kd worked out at 2.99 nM.

B6: GCH073-G1dh/none-Hi-Kn010G3/L0000-k0 (antibody, human IgG1, kappa)
heavy: not shown
chain: B1 chain
light: B1 light with P28S, P29L
notes: single-arm (one Fab)
B6 gave a Kd of 2 nM. This Kd and that of the molecule before are within 1.5-fold of each other.

B7: GCH073-G1dh/none-Hi-Kn010G3/L0201-k0 (antibody, human IgG1, kappa)
heavy: not shown
chain: B1 chain
light: B1 light
notes: single-arm (one Fab)
B7 yielded a dissociation constant (Kd) of 0.035 nM.

B8: GCH060-G1dh/none-Hi-Kn010G3/L0200-k0 (antibody, human IgG1, kappa)
heavy: not shown
chain: B1 chain
light: B1 light with S25P, P28S
notes: single-arm (one Fab)
B8 returned a dissociation constant Kd of 1.34 nM.

B9: H0610-G1dh/none-Hi-Kn010G3/L0007-k0 (antibody, human IgG1, kappa)
heavy: not shown
chain: B1 chain
light: B1 light with S25T, P28S, P29L
notes: single-arm (one Fab)
Take B9: binding was put at a Kd of 4.39 nM.

B10: H0610-G1dh/none-Hi-Kn010G3/L0014-k0 (antibody, human IgG1, kappa)
heavy: not shown
chain: B1 chain
light: B1 light with P28S, P29M
notes: single-arm (one Fab)
In turn, B10 had a Kd of 1.82 nM.

B11: GCH100-G1dh/none-Hi-Kn010G3/L0011-k0 (antibody, human IgG1, kappa)
heavy: not shown
chain: B1 chain
light: B1 light with P29L
notes: single-arm (one Fab)
In the case of B11, the equilibrium dissociation constant (Kd) amounted to 3.81 nM.

B12: GCH094-G1dh/none-Hi-Kn010G3/L0201-k0 (antibody, human IgG1, kappa)
heavy: not shown
chain: B1 chain
light: B1 light
notes: single-arm (one Fab)
In turn, B12 yielded a Kd of 1.17 nM.

B13: GCH065-G1dh/none-Hi-Kn010G3/L0201-k0 (antibody, human IgG1, kappa)
heavy: not shown
chain: B1 chain
light: B1 light
notes: single-arm (one Fab)
On to B13, for which the Kd was determined as 0.0774 nM.

B14: GCH100-G1dh/none-Hi-Kn010G3/L0201-k0 (antibody, human IgG1, kappa)
heavy: not shown
chain: B1 chain
light: B1 light
notes: single-arm (one Fab)
B14: the dissociation constant Kd was 1.37 nM.

B15: GCH057-G1dh/none-Hi-Kn010G3/L0222-k0 (antibody, human IgG1, kappa)
heavy: not shown
chain: B1 chain
light: B1 light with P28S, L38I, H39Q, G94Y
notes: single-arm (one Fab)
The molecule B15 had a Kd of 0.00185 nM. Compared with the last molecule, the Kd is about 740-fold lower.

B16: H0610-G1dh/none-Hi-Kn010G3/L0016-k0 (antibody, human IgG1, kappa)
heavy: not shown
chain: B1 chain
light: B1 light with P28S, P29V
notes: single-arm (one Fab)
B16 came in with a Kd of 4.44 nM.

B17: GCH065-G1dh/none-Hi-Kn010G3/L0262-k0 (antibody, human IgG1, kappa)
heavy: not shown
chain: B1 chain
light: B1 light with G94A
notes: single-arm (one Fab)
In the case of B17, binding was characterised by a dissociation constant (Kd) of 0.0118 nM. Compared with the last molecule, the Kd is about 380-fold lower.

B18: GCH073-G1dh/none-Hi-Kn010G3/L0011-k0 (antibody, human IgG1, kappa)
heavy: not shown
chain: B1 chain
light: B1 light with P29L
notes: single-arm (one Fab)
B18 gave an equilibrium dissociation constant (Kd) of 0.91 nM.

B19: H0610-G1dh/none-Hi-Kn010G3/L0006-k0 (antibody, human IgG1, kappa)
heavy: not shown
chain: B1 chain
light: B1 light with S25P, P28S, P29L
notes: single-arm (one Fab)
On to B19, for which the affinity, expressed as Kd, was 3.04 nM.

B20: GCH065-G1dh/none-Hi-Kn010G3/L0272-k0 (antibody, human IgG1, kappa)
heavy: not shown
chain: B1 chain
light: B1 light with P29L, N35Q
notes: single-arm (one Fab)
In turn, B20 displayed a Kd of 0.393 nM.

B21: GCH094-G1dh/none-Hi-Kn010G3/L0246-k0 (antibody, human IgG1, kappa)
heavy: not shown
chain: B1 chain
light: B1 light with P28S, L38I, H39Q, G94S
notes: single-arm (one Fab)
Molecule B21 had a dissociation constant Kd of 0.00412 nM. This Kd is about 95-fold lower than that of the molecule before.

B22: GCH094-G1dh/none-Hi-Kn010G3/L0011-k0 (antibody, human IgG1, kappa)
heavy: not shown
chain: B1 chain
light: B1 light with P29L
notes: single-arm (one Fab)
As for B22, the Kd was found to be 3.88 nM.

B23: GCH056-G1dh/none-Hi-Kn010G3/L0262-k0 (antibody, human IgG1, kappa)
heavy: not shown
chain: B1 chain
light: B1 light with G94A
notes: single-arm (one Fab)
As for B23, the affinity, expressed as Kd, was 0.0119 nM.

B24: GCH064-G1dh/none-Hi-Kn010G3/L0000-k0 (antibody, human IgG1, kappa)
heavy: not shown
chain: B1 chain
light: B1 light with P28S, P29L
notes: single-arm (one Fab)
B24 yielded a Kd of 4.14 nM. This Kd is about 350-fold higher than that of the molecule before.

B25: GCH094-G1dh/none-Hi-Kn010G3/L0271-k0 (antibody, human IgG1, kappa)
heavy: not shown
chain: B1 chain
light: B1 light with N35Q
notes: single-arm (one Fab)
On to B25, for which the equilibrium dissociation constant (Kd) was determined as 0.692 nM.

B26: GCH094-G1dh/none-Hi-Kn010G3/L0272-k0 (antibody, human IgG1, kappa)
heavy: not shown
chain: B1 chain
light: B1 light with P29L, N35Q
notes: single-arm (one Fab)
For the molecule B26, binding was characterised by a dissociation constant (Kd) of 2.1 nM.

B27: H0610-G1dh/none-Hi-Kn010G3/L0015-k0 (antibody, human IgG1, kappa)
heavy: not shown
chain: B1 chain
light: B1 light with P28S
notes: single-arm (one Fab)
Consider B27, for which the Kd amounted to 1.31 nM.

B28: GCH094-G1dh/none-Hi-Kn010G3/L0270-k0 (antibody, human IgG1, kappa)
heavy: not shown
chain: B1 chain
light: B1 light with P28S, P29L, N35Q
notes: single-arm (one Fab)
In the case of B28, the affinity, expressed as Kd, was 3.6 nM. This Kd lies about 2.7-fold higher than the previous one.

B29: H0610-G1dh/none-Hi-Kn010G3/L0011-k0 (antibody, human IgG1, kappa)
heavy: not shown
chain: B1 chain
light: B1 light with P29L
notes: single-arm (one Fab)
Molecule B29 registered a dissociation constant (Kd) of 2.76 nM.

B30: GCH066-G1dh/none-Hi-Kn010G3/L0000-k0 (antibody, human IgG1, kappa)
heavy: not shown
chain: B1 chain
light: B1 light with P28S, P29L
notes: single-arm (one Fab)
The molecule B30 came in with a Kd of 4.29 nM.

B31: H0610-G1dh/none-Hi-Kn010G3/L0013-k0 (antibody, human IgG1, kappa)
heavy: not shown
chain: B1 chain
light: B1 light with P28S, P29I
notes: single-arm (one Fab)
Molecule B31 had a dissociation constant Kd of 3.35 nM. This Kd and that of the molecule before are within 1.5-fold of each other.

B32: GCH098-G1dh/none-Hi-Kn010G3/L0000-k0 (antibody, human IgG1, kappa)
heavy: not shown
chain: B1 chain
light: B1 light with P28S, P29L
notes: single-arm (one Fab)
B32 came in with an equilibrium dissociation constant (Kd) of 1.77 nM.

B33: GCH099-G1dh/none-Hi-Kn010G3/L0000-k0 (antibody, human IgG1, kappa)
heavy: not shown
chain: B1 chain
light: B1 light with P28S, P29L
notes: single-arm (one Fab); printed with a small k in Hi-kn010G3
For B33, the dissociation constant (Kd) turned out to be 4.24 nM.

B34: GCH098-G1dh/none-Hi-Kn010G3/L0011-k0 (antibody, human IgG1, kappa)
heavy: not shown
chain: B1 chain
light: B1 light with P29L
notes: single-arm (one Fab)
B34 registered a Kd of 0.802 nM.

B35: GCH065-G1dh/none-Hi-Kn010G3/L0011-k0 (antibody, human IgG1, kappa)
heavy: not shown
chain: B1 chain
light: B1 light with P29L
notes: single-arm (one Fab)
On to B35, for which the Kd was determined as 0.884 nM.

B36: GCH056-G1dh/none-Hi-Kn010G3/L0215-k0 (antibody, human IgG1, kappa)
heavy: not shown
chain: B1 chain
light: B1 light with L38I
notes: single-arm (one Fab)
Take B36: the dissociation constant (Kd) came out at 1.59 nM.

B37: GCH099-G1dh/none-Hi-Kn010G3/L0201-k0 (antibody, human IgG1, kappa)
heavy: not shown
chain: B1 chain
light: B1 light
notes: single-arm (one Fab)
Molecule B37 had a Kd of 1.29 nM.

B38: GCH062-G1dh/none-Hi-Kn010G3/L0000-k0 (antibody, human IgG1, kappa)
heavy: not shown
chain: B1 chain
light: B1 light with P28S, P29L
notes: single-arm (one Fab)
B38 displayed a Kd of 3.73 nM.

B39: GCH098-G1dh/none-Hi-Kn010G3/L0201-k0 (antibody, human IgG1, kappa)
heavy: not shown
chain: B1 chain
light: B1 light
notes: single-arm (one Fab)
In turn, B39 displayed a dissociation constant (Kd) of 0.111 nM.

B40: GCH099-G1dh/none-Hi-Kn010G3/L0011-k0 (antibody, human IgG1, kappa)
heavy: not shown
chain: B1 chain
light: B1 light with P29L
notes: single-arm (one Fab)
Molecule B40 returned a Kd of 2.78 nM.

B41: GCH060-G1dh/none-Hi-Kn010G3/L0222-k0 (antibody, human IgG1, kappa)
heavy: not shown
chain: B1 chain
light: B1 light with P28S, L38I, H39Q, G94Y
notes: single-arm (one Fab)
B41 came in with a Kd of 0.000642 nM.

B42: GCH057-G1dh/none-Hi-Kn010G3/L0215-k0 (antibody, human IgG1, kappa)
heavy: not shown
chain: B1 chain
light: B1 light with L38I
notes: single-arm (one Fab)
In turn, B42 gave a dissociation constant (Kd) of 1.83 nM.

B43: H0610-G1dh/none-Hi-Kn010G3/L0003-k0 (antibody, human IgG1, kappa)
heavy: not shown
chain: B1 chain
light: B1 light with S25I, P28S, P29L
notes: single-arm (one Fab)
Turning to B43, the affinity, expressed as Kd, was 4.01 nM.

B44: H0610-G1dh/none-Hi-Kn010G3/L0012-k0 (antibody, human IgG1, kappa)
heavy: not shown
chain: B1 chain
light: B1 light with P28S, P29F
notes: single-arm (one Fab)
In turn, B44 registered a Kd of 1.55 nM.

What is called Kd is the equilibrium constant for the complex coming apart. Low values mean higher affinity, high ones lower affinity.
